Assay results: US20160031996A1 (CSL, published 2016)

T1: human IL-3Rα E51Q/S59A double mutant, full length (human, UniProt P26951 19-378)
T1 chain: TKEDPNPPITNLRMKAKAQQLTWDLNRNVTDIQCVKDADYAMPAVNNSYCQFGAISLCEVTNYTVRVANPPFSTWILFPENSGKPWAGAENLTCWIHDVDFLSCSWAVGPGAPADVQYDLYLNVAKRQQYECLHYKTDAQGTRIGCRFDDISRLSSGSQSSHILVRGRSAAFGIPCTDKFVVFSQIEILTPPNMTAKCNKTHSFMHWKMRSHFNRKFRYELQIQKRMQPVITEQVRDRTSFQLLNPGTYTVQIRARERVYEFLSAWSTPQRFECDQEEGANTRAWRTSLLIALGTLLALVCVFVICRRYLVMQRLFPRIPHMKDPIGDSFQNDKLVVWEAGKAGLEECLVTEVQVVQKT

T2: human IL-3Rα E51Q/P88T double mutant, full length (human, UniProt P26951 19-378)
T2 chain: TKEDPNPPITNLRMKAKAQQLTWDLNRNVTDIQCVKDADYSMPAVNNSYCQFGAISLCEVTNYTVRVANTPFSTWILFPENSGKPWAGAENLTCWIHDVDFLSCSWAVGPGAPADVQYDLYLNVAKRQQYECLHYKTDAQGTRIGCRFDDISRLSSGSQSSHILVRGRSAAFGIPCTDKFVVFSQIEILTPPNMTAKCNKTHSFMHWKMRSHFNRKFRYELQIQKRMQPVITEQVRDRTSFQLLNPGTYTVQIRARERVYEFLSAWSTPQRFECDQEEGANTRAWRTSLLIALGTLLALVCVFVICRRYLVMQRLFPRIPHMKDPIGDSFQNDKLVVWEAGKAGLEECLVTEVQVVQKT

T3: human IL-3Rα S59A/P88T double mutant, full length (human, UniProt P26951 19-378)
T3 chain: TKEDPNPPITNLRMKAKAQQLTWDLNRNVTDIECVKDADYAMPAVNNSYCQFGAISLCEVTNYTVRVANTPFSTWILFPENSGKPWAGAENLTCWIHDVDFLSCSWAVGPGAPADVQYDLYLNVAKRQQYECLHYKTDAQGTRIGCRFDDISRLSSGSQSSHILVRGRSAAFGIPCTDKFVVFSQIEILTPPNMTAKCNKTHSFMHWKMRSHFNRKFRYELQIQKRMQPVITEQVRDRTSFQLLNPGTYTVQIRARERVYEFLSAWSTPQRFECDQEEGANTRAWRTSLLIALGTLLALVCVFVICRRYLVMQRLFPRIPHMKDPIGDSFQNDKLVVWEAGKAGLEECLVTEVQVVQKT

T4: human IL-3Rα E51Q/S59A/P88T triple mutant, full length (human, UniProt P26951 19-378)
T4 chain: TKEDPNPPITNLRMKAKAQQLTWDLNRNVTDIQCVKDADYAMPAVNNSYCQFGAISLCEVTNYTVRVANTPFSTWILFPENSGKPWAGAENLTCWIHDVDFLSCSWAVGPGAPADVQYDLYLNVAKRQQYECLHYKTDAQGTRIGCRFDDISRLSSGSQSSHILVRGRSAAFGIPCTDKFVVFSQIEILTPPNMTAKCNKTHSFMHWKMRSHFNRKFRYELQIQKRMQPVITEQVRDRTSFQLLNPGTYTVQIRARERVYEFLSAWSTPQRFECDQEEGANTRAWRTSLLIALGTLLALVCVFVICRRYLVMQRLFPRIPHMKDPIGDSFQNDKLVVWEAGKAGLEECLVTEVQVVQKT

T5: soluble human IL-3Rα 1-306-His R84A (human, UniProt P26951 19-307)
T5 construct: supernatant of 293FS cells; also called R84, soluble alanine
T5 sequence: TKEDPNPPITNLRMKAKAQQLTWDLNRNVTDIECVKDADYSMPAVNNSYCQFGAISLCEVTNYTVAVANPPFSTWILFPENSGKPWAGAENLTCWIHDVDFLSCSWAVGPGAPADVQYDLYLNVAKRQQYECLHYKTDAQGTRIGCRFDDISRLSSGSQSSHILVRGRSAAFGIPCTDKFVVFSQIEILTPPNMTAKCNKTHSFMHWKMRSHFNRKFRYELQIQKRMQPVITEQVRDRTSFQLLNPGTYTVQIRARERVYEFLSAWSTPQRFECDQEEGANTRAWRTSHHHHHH

T6: human IL-3Rα V53A, full length (human, UniProt P26951 19-378)
T6 construct: expressed in 293F cells; Western blot of whole cell extracts; also called V53, cell surface alanine
T6 sequence: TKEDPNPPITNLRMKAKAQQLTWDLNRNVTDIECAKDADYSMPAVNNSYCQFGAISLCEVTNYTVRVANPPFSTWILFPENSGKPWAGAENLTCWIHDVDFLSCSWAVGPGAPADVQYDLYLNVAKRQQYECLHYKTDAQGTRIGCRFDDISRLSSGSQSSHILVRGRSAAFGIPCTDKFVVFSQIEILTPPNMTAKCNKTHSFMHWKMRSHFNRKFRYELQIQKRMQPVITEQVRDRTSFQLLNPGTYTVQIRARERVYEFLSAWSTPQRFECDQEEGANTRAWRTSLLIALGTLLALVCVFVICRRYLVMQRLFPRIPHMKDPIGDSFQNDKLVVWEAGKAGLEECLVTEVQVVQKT

T7: full length human IL-3Rα, wild type (human, UniProt P26951 19-378)
T7 construct: expressed in 293F cells; also called WT
T7 sequence: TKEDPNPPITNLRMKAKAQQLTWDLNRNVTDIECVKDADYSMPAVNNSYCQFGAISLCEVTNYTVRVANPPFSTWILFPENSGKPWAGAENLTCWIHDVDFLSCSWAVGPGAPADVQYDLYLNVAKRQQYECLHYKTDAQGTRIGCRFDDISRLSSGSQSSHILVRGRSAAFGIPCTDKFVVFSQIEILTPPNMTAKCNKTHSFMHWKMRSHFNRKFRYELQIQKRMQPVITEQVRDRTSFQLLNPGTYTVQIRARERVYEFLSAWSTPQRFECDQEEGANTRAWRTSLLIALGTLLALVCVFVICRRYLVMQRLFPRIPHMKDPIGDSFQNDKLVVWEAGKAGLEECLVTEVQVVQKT


Key:
[1] = molecular target: T1, human IL-3Rα E51Q/S59A double mutant, …; experiment: flow cytometry on transfected cells (FIG. 5)
[2] = molecular target: T2, human IL-3Rα E51Q/P88T double mutant, …; experiment: flow cytometry on transfected cells (FIG. 5)
[3] = molecular target: T3, human IL-3Rα S59A/P88T double mutant, …; experiment: flow cytometry on transfected cells (FIG. 5)
[4] = molecular target: T4, human IL-3Rα E51Q/S59A/P88T triple …; experiment: flow cytometry on transfected cells (FIG. 5)
[5] = molecular target: T5, soluble human IL-3Rα 1-306-His R84A; experiment: Western blot, supernatants of 293FS cells
[6] = molecular target: T6, human IL-3Rα V53A, full length; experiment: Western blot, whole cell extracts of 293F cells
[7] = molecular target: T7, full length human IL-3Rα, wild type; experiment: flow cytometry, MFI normalised to WT (reference, set as 100%)
Experimental: Median fluorescence intensity (MFI) of each antibody was determined for WT IL-3Rα and for each IL-3Rα mutant. The MFI of WT IL-3Rα staining for each antibody was set as 100% then the MFI of each mutant was normalized to a percent of WT staining.

Row | binding result [1] | binding result [2] | binding result [3] | binding result [4] | binding result [5] | binding result [6] | MFI as percent of WT staining [7] | Binder
1 | no binding | no binding | no binding | no binding | no binding | – | – | antibody CSL362 (antibody, V domains shown) VH: EVQLVQSGAEVKKPGESLKISCKGSGYSFTDYYMKWARQMPGKGLEWMGDIIPSNGATFYNQKFKGQVTISADKSISTTYLQWSSLKASDTAMYYCARSHLLRASWFAYWGQGTMVTVSS VL: DIVMTQSPDSLAVSLGERATINCESSQSLLNSGNQKNYLTWYQQKPGQPPKPLIYWASTRESGVPDRFSGSGSGTDFTLTISSLQAEDVAVYYCQNDYSYPYTFGQGTKLEIKR
2 | – | – | – | – | – | no binding | 100 % of WT MFI | monoclonal antibody 7G3 (antibody, V domains shown, mouse monoclonal antibody (hybridoma ATCC HB-12009)) VH: EVQLQQSGPELVKPGASVKMSCKASGYTFTDYYMKWVKQSHGKSLEWIGDIIPSNGATFYNQKFKGKATLTVDRSSSTAYMHLNSLTSEDSAVYYCTRSHLLRASWFAYWGQGTLVTVSA VL: DFVMTQSPSSLTVTAGEKVTMSCKSSQSLLNSGNQKNYLTWYLQKPGQPPKLLIYWASTRESGVPDRFTGSGSGTDFTLTISSVQAEDLAVYYCQNDYSYPYTFGGGTKLEIKR
